{"source": "patent US20090291885A1", "assay_in_all_cases": "cell-based or functional assay", "key": {"[1]": {"biological_target": "human Kv1.3 voltage-gated potassium channel (human) (UniProt P22001)", "sequence (P22001 whole entry)": "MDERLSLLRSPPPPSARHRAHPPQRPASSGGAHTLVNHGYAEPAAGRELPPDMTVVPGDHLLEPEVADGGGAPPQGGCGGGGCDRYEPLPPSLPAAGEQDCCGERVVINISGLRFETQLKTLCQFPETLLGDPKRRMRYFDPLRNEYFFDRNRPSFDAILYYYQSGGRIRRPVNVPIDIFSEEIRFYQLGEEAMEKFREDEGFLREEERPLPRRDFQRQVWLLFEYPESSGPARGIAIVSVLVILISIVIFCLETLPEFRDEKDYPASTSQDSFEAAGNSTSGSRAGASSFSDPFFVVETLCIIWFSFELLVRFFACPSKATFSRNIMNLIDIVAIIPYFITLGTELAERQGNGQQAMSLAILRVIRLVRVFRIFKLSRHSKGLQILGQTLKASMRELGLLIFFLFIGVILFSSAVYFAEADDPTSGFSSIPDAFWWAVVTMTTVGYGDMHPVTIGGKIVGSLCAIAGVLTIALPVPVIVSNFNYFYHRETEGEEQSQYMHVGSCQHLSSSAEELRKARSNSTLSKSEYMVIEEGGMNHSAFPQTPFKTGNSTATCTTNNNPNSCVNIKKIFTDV"}, "[2]": {"biological_target": "human Kv1.3 channel (human) (UniProt P22001)", "sequence (P22001 whole entry)": "as above"}, "[3]": {"biological_target": "human Kv1.1 channel (human) (UniProt Q09470)", "sequence (Q09470 whole entry)": "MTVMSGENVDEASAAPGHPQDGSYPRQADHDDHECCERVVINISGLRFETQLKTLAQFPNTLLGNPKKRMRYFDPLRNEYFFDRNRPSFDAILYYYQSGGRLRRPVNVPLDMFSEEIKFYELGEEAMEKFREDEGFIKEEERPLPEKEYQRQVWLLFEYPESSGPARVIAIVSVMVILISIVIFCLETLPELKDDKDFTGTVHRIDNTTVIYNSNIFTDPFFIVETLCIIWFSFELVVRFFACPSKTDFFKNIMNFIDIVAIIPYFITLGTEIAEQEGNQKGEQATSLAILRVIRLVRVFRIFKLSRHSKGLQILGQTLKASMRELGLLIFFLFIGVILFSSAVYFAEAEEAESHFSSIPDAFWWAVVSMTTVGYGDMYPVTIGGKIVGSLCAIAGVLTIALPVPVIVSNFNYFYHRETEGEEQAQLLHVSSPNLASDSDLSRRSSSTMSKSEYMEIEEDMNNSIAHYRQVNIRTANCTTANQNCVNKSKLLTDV"}, "[4]": {"biological_target": "human Kv1.3 channel (human) (UniProt P22001)", "remark": "listed apart in the source"}}, "note": "Where two headings read alike, the source gives them in different places. Ends that are not written are not given here.", "data": [{"molecule": "20k PEG-ShK (peptide)", "values": [{"measurement": "WB/IFNg (IC50, nM)", "setting": "[1]", "result": 0.065, "unit": "nM"}, {"measurement": "WB/IL-2 (IC50, nM)", "setting": "[1]", "result": 0.046, "unit": "nM"}]}, {"molecule": "E. coli-derived Fc-L-OSK1 (Fc fusion)", "values": [{"measurement": "Kv1.3 IC50 by WCVC", "setting": "[2]", "result": 3.2, "unit": "nM"}]}, {"molecule": "E. coli-derived Fc-L-ShK[1-35] (Fc fusion)", "values": [{"measurement": "Kv1.3 IC50 by WCVC", "setting": "[2]", "result": 1.4, "unit": "nM"}]}, {"molecule": "E. coli-derived Fc-L-ShK[2-35] (Fc fusion)", "values": [{"measurement": "Kv1.3 IC50 by IWQ", "setting": "[2]", "result": 2.8, "unit": "nM"}, {"measurement": "Kv1.3 IC50 by WCVC", "setting": "[2]", "result": 1.3, "unit": "nM"}]}, {"molecule": "E. coli-derived ShK[2-35]-L-Fc (Fc fusion)", "values": [{"measurement": "Kv1.3 IC50 by IWQ", "setting": "[2]", "result": 4.9, "unit": "nM"}]}, {"molecule": "E. coli-derived Shk[1-35]-L-Fc (Fc fusion)", "values": [{"measurement": "Kv1.3 IC50 by IWQ", "setting": "[2]", "result": 2.4, "unit": "nM"}]}, {"molecule": "Fc-L10-OSK1 (Fc fusion)", "values": [{"measurement": "fold loss of potency in Kv1.3 current block against synthetic OSK1", "setting": "[2]", "result": 5, "unit": "fold"}]}, {"molecule": "Fc-L25-ShK[2-35] (Fc fusion)", "values": [{"measurement": "IC50, whole cell patch clamp electrophysiology on HEK293/Kv1.3 cells", "setting": "[2]", "result": 150, "unit": "pM"}]}, {"molecule": "GGGGS-Osk1 (peptide)", "values": [{"measurement": "WB/IFNg IC50", "setting": "[2]", "result": 2.2, "unit": "nM"}, {"measurement": "WB/IL-2 IC50", "setting": "[2]", "result": 1.36, "unit": "nM"}]}, {"molecule": "OSK1 (wild-type) (peptide)", "values": [{"measurement": "Kv1.3 IC50, whole cell patch clamp", "setting": "[2]", "result": 0.039, "unit": "nM"}, {"measurement": "Kv1.3 Selectivity (= Kv1.1/Kv.3 IC50)", "setting": "[2]", "result": 5, "unit": "fold"}, {"measurement": "Kv1.1 IC50, whole cell patch clamp", "setting": "[3]", "result": 0.202, "unit": "nM"}]}, {"molecule": "PEG-OSK1 (peptide)", "values": [{"measurement": "peak IC50, whole cell patch clamp on HEK293 cells stably expressing human Kv1.3", "setting": "[2]", "result": 1.28, "unit": "nM"}]}, {"molecule": "Synthetic OSK1 (peptide)", "values": [{"measurement": "hKv1.1/hKv1.3 (selectivity ratio of the IC50s)", "setting": "[2]", "result": 4, "unit": "fold"}, {"measurement": "hKv1.3: IC50 [pM]", "setting": "[2]", "result": 39, "unit": "pM"}, {"measurement": "hKv1.1: IC50 [pM]", "setting": "[3]", "result": 160, "unit": "pM"}]}, {"molecule": "RSCIDTIPKSRCTAFQCKHSMKYRLSFCRKTCGTC (not fully specified; ends and bridges not checked)", "note": "[20K PEG-ShK[1-35]]", "values": [{"measurement": "peak IC50, whole cell patch clamp on HEK293 cells stably expressing human Kv1.3", "setting": "[4]", "result": 0.169, "unit": "nM"}]}]}
